Measurements published in patent publication US20160304610A1 (JOUNCE THERAPEUTICS, published 2016).

Target: T1, mouse ICOS, full length, on cells (mouse, UniProt Q9WVS0 21-200)
T1 construct: also called CHO-mICOS; mouse ICOS+ CHO cells
T1 sequence: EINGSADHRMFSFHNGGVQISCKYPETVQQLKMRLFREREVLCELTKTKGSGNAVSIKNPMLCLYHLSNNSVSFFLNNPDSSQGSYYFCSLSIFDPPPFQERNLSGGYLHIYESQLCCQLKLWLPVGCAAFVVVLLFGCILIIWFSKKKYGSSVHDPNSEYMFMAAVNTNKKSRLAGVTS
Test: receptor availability assay, flow cytometry on mouse blood T cells after 2.5 mg/kg i.p.
Description: ICOS target engagement may also be assessed as measured by receptor availability assay, for example, as follows. Naive mice were i.p. injected with either the isotype control mIgG2a at 2.5 mg/kg or […] with a mouse IgG2a at 2.5 mg/kg. At various time-points post-injection, blood was collected in EDTA coated microtubes via submandibular draw.
Whole blood was Fc blocked using mouse TruStain (BioLegend) for 5 minutes on ice. Following incubation, 100 μl of 2× concentrated extracellular staining antibody mixture was added to each sample for 30 minutes at 4° C. Samples were spun down and fixed and permeabilized in Foxp3 staining buffer (eBioSciences) for 30 minutes at 4° C. Samples were then spun down and resuspended in intracellular antibody stain for 30 minutes at 4° C. Samples were spun down and resuspended in 0.1% PFA. Samples were analyzed on a BD LSRII Fortessa. Tregs were identified as live CD45+ CD3+ CD4+ FoxP3+. Teff cells were identified as live CD45+ CD3+ CD4+ FoxP3−. CD8+ cells were identified as live CD45+ CD3+ CD8+. Fluorescently labeled 37A10S713-mG2a (DyLight 650 conjugated) was used as the staining reagent for ICOS. Receptor availability at each time point was determined using the following formula: […]

binding result: binds
B1: 37A10S713-mG2a (antibody, V domains shown)
VH: EVQLVESGGGLVQPGGSLRLSCAASGFTFSDYWMDWVRQAPGKGLVWVSNIDEDGSITEYSPFVKGRFTISRDNAKNTLYLQMNSLRAEDTAVYYCTRWGRFGFDSWGQGTLVTVSS
VL: DIVMTQSPDSLAVSLGERATINCKSSQSLLSGSFNYLTWYQQKPGQPPKLLIFYASTRHTGVPDRFSGSGSGTDFTLTISSLQAEDVAVYYCHHHYNAPPTFGPGTKVDIK
notes: 37A10S713 VH and VL with a mouse IgG2a; also called 37A10S713 with a mouse IgG2a; 37A10S713-mIgG2a
